Results reported in patent US20220332804A1 (CSL INNOVATION, published 2022).
Numbering of substitutions follows the chain as printed.

Legend:
Assay in all cases: SPR, KD relative to WT C2;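 further: biacore SPR at 37 °C, anti-C2 mAbs captured via immobilised goat anti-human IgG, C2 alanine or serine surface mutants as analytes, 1:1 model fitted, double-referenced sensograms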
human C2 E645A = target: T1, human C2 E645A (human, UniProt P06681 21-752)
T1 sequence: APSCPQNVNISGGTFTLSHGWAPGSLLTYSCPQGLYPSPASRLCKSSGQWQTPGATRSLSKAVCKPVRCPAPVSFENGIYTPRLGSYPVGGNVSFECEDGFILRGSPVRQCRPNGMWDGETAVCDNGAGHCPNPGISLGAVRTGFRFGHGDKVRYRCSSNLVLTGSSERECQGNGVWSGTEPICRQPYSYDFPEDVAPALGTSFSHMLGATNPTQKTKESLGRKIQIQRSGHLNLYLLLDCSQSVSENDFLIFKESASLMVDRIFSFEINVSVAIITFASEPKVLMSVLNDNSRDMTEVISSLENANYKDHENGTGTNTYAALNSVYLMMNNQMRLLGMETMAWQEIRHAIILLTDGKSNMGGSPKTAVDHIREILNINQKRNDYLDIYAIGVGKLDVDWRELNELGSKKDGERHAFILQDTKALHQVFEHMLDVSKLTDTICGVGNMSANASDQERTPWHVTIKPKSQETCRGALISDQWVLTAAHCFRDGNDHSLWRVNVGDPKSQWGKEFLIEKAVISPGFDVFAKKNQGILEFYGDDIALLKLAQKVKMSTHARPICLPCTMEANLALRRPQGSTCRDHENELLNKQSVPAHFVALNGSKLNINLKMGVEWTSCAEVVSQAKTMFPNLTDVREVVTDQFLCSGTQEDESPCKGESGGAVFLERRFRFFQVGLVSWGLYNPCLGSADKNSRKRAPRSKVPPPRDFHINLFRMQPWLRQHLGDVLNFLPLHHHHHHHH

human C2 A709S = target: T2, human C2 A709S (human, UniProt P06681 21-752)
T2 sequence: T1 sequence with A625E, A689S

human C2 D404A = target: T3, human C2 D404A (human, UniProt P06681 21-752)
T3 sequence: T1 sequence with D384A, A625E

human C2 K715A = target: T4, human C2 K715A (human, UniProt P06681 21-752)
T4 sequence: T1 sequence with A625E, K695A

B1: RF16-226 (antibody, human IgG4 S228P, lambda)
heavy: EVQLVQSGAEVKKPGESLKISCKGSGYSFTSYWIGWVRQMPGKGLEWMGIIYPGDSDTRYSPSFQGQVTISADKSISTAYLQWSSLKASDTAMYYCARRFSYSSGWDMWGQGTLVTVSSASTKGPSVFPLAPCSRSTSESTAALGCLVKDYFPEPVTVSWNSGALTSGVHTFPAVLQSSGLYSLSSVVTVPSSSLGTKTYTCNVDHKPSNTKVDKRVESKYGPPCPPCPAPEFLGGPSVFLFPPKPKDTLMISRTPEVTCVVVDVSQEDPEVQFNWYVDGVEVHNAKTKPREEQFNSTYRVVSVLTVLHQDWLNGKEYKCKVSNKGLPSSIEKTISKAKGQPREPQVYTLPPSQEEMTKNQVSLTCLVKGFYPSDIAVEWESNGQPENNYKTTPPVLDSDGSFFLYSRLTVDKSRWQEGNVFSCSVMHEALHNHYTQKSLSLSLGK
light: SYELTQPPSVSVSPGQTARITCSGDALTSKYVAWYQQKSGLAPLLVIYEDTRRPSGIPAKFSGSSSGSVATLTISGAHGDDEADYYCYSTDASGHQRVFGGGTKLTVLSQPKAAPSVTLFPPSSEELQANKATLVCLISDFYPGAVTVAWKADGSPVKAGVETTKPSKQSNNKYAASSYLSLTPEQWKSHRSYSCQVTHEGSTVEKTVAPTECS
notes: pH-dependent anti-C2 antibody from a phage display library; also called WT
Fold diff (human C2 E645A): 1 fold | Fold diff (human C2 A709S): 13 fold | Fold diff (human C2 D404A): 1 fold | Fold diff (human C2 K715A): 2 fold
